Results from paper PMC4705477, “Biochemical Characterization of Nonamer Binding Domain of RAG1 Reveals its Thymine Preference with Respect to Length and Position”.
Numbering of substitutions follows the chain as printed.

Key:
[1] = biological target: T1, NBD (nonamer binding domain of RAG1) (mouse, UniProt P15919 384-461); assay: EMSA; 5 mM Ca2+; NBD EMSA: 10 mM Tris-HCl pH 7.5, 33 mM KCl, 5 mM CaCl2, 2 mM DTT, 0.1 mg/ml BSA, 6% glycerol, 15 min 30 C; cRAG EMSA: 22.5 mM MOPS-KOH pH 7.0, 20% DMSO, 2.2 mM; settings: protein: recombinant, tags: N-terminal His6 (pET28a)
T1 sequence: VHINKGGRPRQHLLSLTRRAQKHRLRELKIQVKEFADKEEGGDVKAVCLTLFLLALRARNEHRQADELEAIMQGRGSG

[2] = biological target: T2, MBP-cRAG1 (core RAG1);cRAG2 (core RAG2) (mouse?;mouse?, UniProt P15919;P21784 384-1040;1-383, |); assay: EMSA; cRAG buffer; NBD EMSA: 10 mM Tris-HCl pH 7.5, 33 mM KCl, 5 mM CaCl2, 2 mM DTT, 0.1 mg/ml BSA, 6% glycerol, 15 min 30 C; cRAG EMSA: 22.5 mM MOPS-KOH pH 7.0, 20% DMSO, 2.2 mM; settings: protein: recombinant;recombinant, tags: MBP;MBP, chain copies: 2;2
T2 sequence 1: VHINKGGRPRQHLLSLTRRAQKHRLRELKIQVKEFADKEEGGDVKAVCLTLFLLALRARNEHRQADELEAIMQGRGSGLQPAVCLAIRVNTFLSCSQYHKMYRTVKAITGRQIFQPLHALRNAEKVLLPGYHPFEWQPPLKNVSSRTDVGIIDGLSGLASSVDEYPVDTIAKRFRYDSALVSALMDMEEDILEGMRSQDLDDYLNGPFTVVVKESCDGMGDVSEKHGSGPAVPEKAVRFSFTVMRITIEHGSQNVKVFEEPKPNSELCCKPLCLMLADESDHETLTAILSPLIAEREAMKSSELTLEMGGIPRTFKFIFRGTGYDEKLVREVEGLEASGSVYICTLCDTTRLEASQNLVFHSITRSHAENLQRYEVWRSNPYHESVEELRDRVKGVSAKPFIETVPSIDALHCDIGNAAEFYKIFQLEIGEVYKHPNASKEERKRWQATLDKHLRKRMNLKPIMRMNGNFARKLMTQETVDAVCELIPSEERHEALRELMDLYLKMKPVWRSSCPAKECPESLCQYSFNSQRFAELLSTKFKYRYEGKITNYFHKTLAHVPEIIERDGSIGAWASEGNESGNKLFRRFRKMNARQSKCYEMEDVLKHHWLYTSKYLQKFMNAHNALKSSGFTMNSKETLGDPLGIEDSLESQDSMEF
T2 sequence 2: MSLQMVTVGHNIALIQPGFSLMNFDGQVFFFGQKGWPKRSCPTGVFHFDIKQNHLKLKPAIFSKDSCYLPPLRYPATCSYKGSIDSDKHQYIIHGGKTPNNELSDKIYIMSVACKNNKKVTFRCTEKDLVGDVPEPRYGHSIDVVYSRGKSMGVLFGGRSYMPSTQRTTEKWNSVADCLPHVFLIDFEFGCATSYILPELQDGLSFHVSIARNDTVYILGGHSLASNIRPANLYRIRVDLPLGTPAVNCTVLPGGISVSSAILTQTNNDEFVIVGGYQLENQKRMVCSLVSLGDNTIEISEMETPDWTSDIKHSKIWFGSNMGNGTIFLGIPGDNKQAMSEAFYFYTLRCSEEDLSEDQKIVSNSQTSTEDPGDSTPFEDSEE

[3] = biological target: T1, NBD (nonamer binding domain of RAG1); assay: EMSA; 5 mM Ca2+; no significant binding; NBD EMSA: 10 mM Tris-HCl pH 7.5, 33 mM KCl, 5 mM CaCl2, 2 mM DTT, 0.1 mg/ml BSA, 6% glycerol, 15 min 30 C; cRAG EMSA: 22.5 mM MOPS-KOH pH 7.0, 20% DMSO, 2.2 mM; settings: protein: recombinant; tags: N-terminal His6 (pET28a); label: 5' 32P on DR59; 6 nt T/T bubble, blunt ends
[4] = biological target: T1, NBD (nonamer binding domain of RAG1); assay: BLI; 1x PBS, 30 C, 1:1 fit; NBD EMSA: 10 mM Tris-HCl pH 7.5, 33 mM KCl, 5 mM CaCl2, 2 mM DTT, 0.1 mg/ml BSA, 6% glycerol, 15 min 30 C; cRAG EMSA: 22.5 mM MOPS-KOH pH 7.0, 20% DMSO, 2.2 mM; settings: protein: recombinant; tags: N-terminal His6 (pET28a); label: 5' biotin
[5] = label: 5' 32P on AKN1, 5' overhang 1 nt at both ends
[6] = label: 5' 32P, 6 nt T/T bubble, blunt ends
[7] = label: 5' 32P, 6 nt C/C bubble, blunt ends
[8] = label: 5' 32P, 6 nt G/G bubble, blunt ends, intermolecular G4 in K+ buffer
[9] = label: 5' 32P on NM32, 6 nt T/T bubble, blunt ends
[10] = label: 5' 32P, 6 nt A/A bubble, blunt ends

B1: poly T 28 (MS101) (ssDNA)
DNA: TTTTTTTTTTTTTTTTTTTTTTTTTTTT
- binding result ([1]; label: 5' 32P): binds

B2: poly T 10 (MS103) (ssDNA)
DNA: TTTTTTTTTT
- binding result ([1]; label: 5' 32P): no binding

B3: 12RSS (I, AKN1/AKN2) (dsDNA)
DNA 1: GATCAGCTGATAGCTACCACAGTGCTACAGACTGGAACAAAAACCCTGCT
DNA 2: TAGCAGGGTTTTTGTTCCAGTCTGTAGCACTGTGGTAGCTATCAGCTGAT
- binding result [2, 5]: binds
- binding result [1, 5]: binds

B4: random dsDNA MN45/MN46 (XV or XVI) (dsDNA)
DNA 1: AGAAGGGGGAGGGGAGGGAGAGAGGGGGCGCCG
DNA 2: CGGCGCCCCCTCTCTCCCTCCCCTCCCCCTTCT
- binding result ([1]; label: 5' 32P on MN45, blunt): no binding

B5: XXIX, 15 T at 3' end (MS16) (ssDNA)
DNA: GAGTCTGATCTTACCTCTTATTTTTTTTTTTTTTT
- binding result ([1]; label: 5' 32P): binds

B6: XXX, 20 T at 3' end (MS18) (ssDNA)
DNA: B5 DNA with C17T, A20T
- binding result ([1]; label: 5' 32P): binds

B7: T/T bubble heteroduplex (AKN11/SCR252) (dsDNA)
DNA 1: GACCTGAGGGCGAGCTTTTTTCGAGTAACTTAACAG
DNA 2: CTGTTAAGTTACTCGTTTTTTGCTCGCCCTCAGGTC
- binding result [2, 6]: binds
- binding result [1, 6]: no binding

B8: T/T bubble with scrambled nonamer (XXXVII, DR59/DR60) (dsDNA)
DNA 1: GACCTGAGGGCGAGCTTTTTTCGAGTAACTTAAGCGGAGGTCCTGCT
DNA 2: AGCAGGACCTCCGCTTAAGTTACTCGTTTTTTGCTCGCCCTCAGGTC
- binding result [3]: no binding

B9: C/C bubble heteroduplex (AKN46/AKN20) (dsDNA)
DNA 1: GACCTGAGGGCGAGCCCCCCCCGAGTAACTTAACAG
DNA 2: CTGTTAAGTTACTCGCCCCCCGCTCGCCCTCAGGTC
- binding result [2, 7]: binds
- binding result [1, 7]: no binding

B10: XXVII, 5 T at 3' end (MS12) (ssDNA)
DNA: GAGTCTGATCTTACCTCTTAACTTCGCTACTTTTT
- binding result ([1]; label: 5' 32P): binds

B11: XXVIII, 10 T at 3' end (MS14) (ssDNA)
DNA: B5 DNA with T21A, T22C, T25C
- binding result ([1]; label: 5' 32P): binds

B12: A/T 10 bp (MS103/DR38) (dsDNA)
DNA 1: TTTTTTTTTT
DNA 2: AAAAAAAAAA
- binding result ([1]; label: 5' 32P, blunt): no binding

B13: random dsDNA MN37/MN38 (XV or XVI) (dsDNA)
DNA 1: CCTCTCCCCCTCCCCTCCCCTCCCTCGCGC
DNA 2: GCGCGAGGGAGGGGAGGGGAGGGGGAGAGG
- binding result ([1]; label: 5' 32P on MN37, blunt): no binding

B14: G/G bubble heteroduplex (V, AKN47/AKN48) (dsDNA)
DNA 1: GACCTGAGGGCGAGCGGGGGGCGAGTAACTTAACAG
DNA 2: CTGTTAAGTTACTCGGGGGGGGCTCGCCCTCAGGTC
- binding result [2, 8]: no binding
- binding result [1, 8]: no binding

B15: poly T 16 (MS102) (ssDNA)
DNA: TTTTTTTTTTTTTTTT
- binding result ([1]; label: 5' 32P): no binding

B16: poly T 22 (MS100) (ssDNA)
DNA: TTTTTTTTTTTTTTTTTTTTTT
- binding result ([1]; label: 5' 32P): no binding

B17: XXXI, 10 T at 5' end (MS22) (ssDNA)
DNA: TTTTTTTTTTGAGTCGGATCTTACGTCGTAACTTCGCTAC
- binding result ([1]; label: 5' 32P): binds

B18: A/T 16 bp (MS102/DR39) (dsDNA)
DNA 1: TTTTTTTTTTTTTTTT
DNA 2: AAAAAAAAAAAAAAAA
- binding result ([1]; label: 5' 32P, blunt): no binding

B19: A/T 22 bp (MS100/DR40) (dsDNA)
DNA 1: TTTTTTTTTTTTTTTTTTTTTT
DNA 2: AAAAAAAAAAAAAAAAAAAAAA
- binding result ([1]; label: 5' 32P, blunt): no binding

B20: T/T bubble with nonamer (VII, NM32/NM33) (dsDNA)
DNA 1: GACCTGAGGGCGAGCTTTTTTCGAGTAACTTAAACAAAAACCCTGCT
DNA 2: AGCAGGGTTTTTGTTTAAGTTACTCGTTTTTTGCTCGCCCTCAGGTC
- binding result [2, 9]: binds
- binding result [1, 9]: binds

B21: XXXIII, ssDNA lacking T stretch (ssDNA)
DNA: CTGTTAAGTTACTCGAAAAAAGCTCGCCCTCAGGTC
- binding result ([1]; label: 5' 32P): no binding

B22: A/A bubble heteroduplex (AKN18/AKN45) (dsDNA)
DNA 1: B21 DNA
DNA 2: GACCTGAGGGCGAGCAAAAAACGAGTAACTTAACAG
- binding result [2, 10]: no binding
- binding result [1, 10]: no binding

B23: A/T 28 bp (MS101/DR41) (dsDNA)
DNA 1: TTTTTTTTTTTTTTTTTTTTTTTTTTTT
DNA 2: AAAAAAAAAAAAAAAAAAAAAAAAAAAA
- binding result ([1]; label: 5' 32P, blunt): binds

B24: poly T 75 (MS6) (ssDNA)
DNA: TTTTTTTTTTTTTTTTTTTTTTTTTTTTTTTTTTTTTTTTTTTTTTTTTTTTTTTTTTTTTTTTTTTTTTTTTT
- binding result ([1]; label: 5' 32P): binds

B25: biotinylated poly T 35 (ssDNA)
DNA: TTTTTTTTTTTTTTTTTTTTTTTTTTTTTTTTTTT
- Kd [4]: 450 nM

B26: ss poly T 35 (MS3) (ssDNA)
DNA: B25 DNA
- binding result ([2]; label: 5' 32P): no binding
